In the series the test system is HEK293 cells. Format: cell-based, human. The following applies: luminescence from secreted Gluc in supernatant 24 hours after transfection of HEK293 cells; circular RNA encoding Gluc with the named IRES (UTR truncated to 675 nt).

B1: Livupivirus (nucleic acid, listed as Livupivirus sp.)
DNA: TATCTACATGGGGATCCAGGCTGTATGGAATGTCTGTCTTAACAAGCACTATACCAGAAAGATCCACCCAAAGTGGTGGGACTGGGACTGTGAGGTGAGAAATCCCGAAACCAGCCTTCTCAAGCGTCGGACGATCTTTCTGTTTTAGTGAACACCTTGCCTTTTAAATGGATGACAACACCCCTTCAGCAAATCGCAATCTGAAATCCCAAAAGACTGTTTAGCCGAACTCTGGTAATCACTCCGGAGAAGTAGGATACGCAGCCCCTGTGGACTCTTGATTTCAGGACTCAAGGTAGCTAGAGCTGGAACTTCATGGAATGACAAAGGAATATATGCACATTGTGCGCTTTCCTGGCCTTGTAGCCCGTCGTGAGGATATGTCGTTGGGAATCGACATCTTAGTCCAGTACTGCTTGATAGAGTGTCGGCTGGCACAGTTACCTGAGAATAAGTCAGTTGTACTTAACATGAACAAAAAAAATAACTACCACAACTACCACAATCTACCAATACTTGAATTATGCTGAATCTCGTACAGTAAAAACGTTCCGTGGAAGGACAAGTATTGAAGTGCGGTTACATCATCCGATACGCGCTGGATCCCTCA
Regarding B1, the Expression is reported as 2.10E+05.

B2: Rabovirus A (nucleic acid)
DNA: CTACGGATATTTGCATGACCCGCTTTCTATCGCCCCAACAATCCCCTTTGTAACCACAAGCTTTACTCAGGCTAGCAGCCCGACTAGCTGTTTGGAAGAAAAGGCTAGGGCACACACCAACAACACCGACCCCACTGGTCGAAGGCCGCTTGGCAATAAGACTGGTGGAACAGGGTCGCCTGTAGTTGTTTGGAACATTCTTTCTAATGACTTTGTCAGCGGTGCTACTCACACCGTAACTCTTCTACCCTATCCCCACGCTTGTGGAACTAGGAGGGGATGAGTGATTCAAGTAAGTACTGTCAGAATGGTGAAAATGATCTGATTCTGAAACGCTATGGATCCATCGAAAGATGGGGCTACACGCCTGCGGAACAACACATGGTAACATGTGCCCCAGGGGCCGAAAGCCACGGTGATAGGATCACCCGTGTAGTTTGAGATCATATCAATGTTCATAGTCTAGTAAGATGATTTGAAATCTAACTGAGCTGATGGCTAACTGCTTGTCTTATTGCGGCCTAAGGATGTCCTGCAGGTACCTTTAGATAACCTTAAGAGACTATTGATCTGAGCAGGAGCCAAAGTGGTCTTTCCCAGCTTTGGTTAAAAAACGTCTAAGCCGCGGCAGGGGGCGGGAGGCCCCCTTTCCTCCCAAAACTTAATATTGATTGT
modifications: Rabovirus A
Turning to B2, the Expression is given as 2.88E+06.

B3: Shingleback nidovirus 1 (nucleic acid)
DNA: CTGTGAGTACCGACAGGCTCGAAGTCTATTATGAGGCGTCGAAACAGAAAACCTGTAACAACTCCGGTTTCATCTATCACTGCCGTCAAGAGGCAGAAGAGGACGACCACGTGTCACCAGATCACTTGTATCTGTTTCAGTCAGGAAGTCAACTTTTCGACGAAGTTCGACCATTCATCGACCCGCTGAAAAGCGTAGAAGTCGATGAAGATGAGCTCCAAAGAGCCATCGCCGATTTCGACAACCAAAGTGACTGTTTCCACTCCTTCGAGCTCGTGAATTTCGAGCTGAAACAACAAATCAACGAGAACGAGTGGTACGGTTATTATAATTACGACAACCAAAACTGCAAAGTTCAGTTGCCAGTCACATGTCGAATCGAGGACGTAACCTGGGATCAGGTTTACGTG
modifications: Shingleback nidovirus 1
B3 returned an Expression of 2.62E+05.

Source of the values: US20230226096A1 (Orna Therapeutics, Inc., priority 2020, published 2023).
